This assay concerns the target human 4-1BB expressed with a C-terminal myc-myc-hexahistidine tag (h4-1BB.mmH) (human). Put plainly: blocking ELISA, 0.25 nM h4-1BB-mmh binding to coated 6His-Flag-h4-1BBL. A general note: ELISA stands for enzyme-linked immunosorbent assay.

Data on 2 substances can be found in patent US20250043017A1.

Chain of human 4-1BB expressed with a C-terminal myc-myc-hexahistidine tag (h4-1BB.mmH) (human) (chain, as listed by the source limits assumed): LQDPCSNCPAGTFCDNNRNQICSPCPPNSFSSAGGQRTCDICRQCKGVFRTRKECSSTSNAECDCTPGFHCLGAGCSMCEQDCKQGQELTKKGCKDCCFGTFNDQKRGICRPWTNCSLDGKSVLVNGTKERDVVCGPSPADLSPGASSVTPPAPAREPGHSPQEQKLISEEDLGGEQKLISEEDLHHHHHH

With Isotype Control 1 (antibody), the % Blocking at 100 nM mAb was -8%.

As to Isotype Control 2 (antibody), the % Blocking at 100 nM mAb is -11%.
